Assay results: patent US20110189729

Target: lambda integrase Int-h/218 h/218 mutant (substitutions not given) (Bacteriophage lambda) (UniProt P03700)
Assay: cell_activity
Settings: CHO-DG44

“CTGCTTTTTTATACTAAGTTGGCATTATAAAAAAGCATTGCTTATCAATTTGTTGCAACGAACAGGTCACTATCAGTCAAAATAAAATCATTATTTGATTTC / GAAATCAAATAATGATTTTATTTTGACTGATAGTGACCTGTTCGTTGCAACAAATTGATAAGCAATGCTTTTTTATAATGCCAACTTAGTATAAAAAAGCAG / CTGCTTTTTTATACTAACTTG / CAAGTTAGTATAAAAAAGCAG [attL ; attB]” showed an activity (% fluorescent cells) (attL x attB, with IHF and XIS, PCR verified) of 2.3.

For “CTGCTTTTTTATACTAAGTTGGCATTATAAAAAAGCATTGCTTATCAATTTGTTGCAACGAACAGGTCACTATCAGTCAAAATAAAATCATTATTTGATTTC / GAAATCAAATAATGATTTTATTTTGACTGATAGTGACCTGTTCGTTGCAACAAATTGATAAGCAATGCTTTTTTATAATGCCAACTTAGTATAAAAAAGCAG / TCTGTTACAGGTCACTAATACCATCTAAGTAGTTGATTCATAGTGACTGCATATGTTGTGTTTTACAGTATTATGTAGTCTGTTTTTTATGCAAAATCTAATTTAATATATTGATATTTATATCATTTTACGTTTCTCGTTCAGCTTTTTTATACTAACTTG / CAAGTTAGTATAAAAAAGCTGAACGAGAAACGTAAAATGATATAAATATCAATATATTAAATTAGATTTTGCATAAAAAACAGACTACATAATACTGTAAAACACAACATATGCAGTCACTATGAATCAACTACTTAGATGGTATTAGTGACCTGTAACAGA [attL ; attR]”, the activity (% fluorescent cells) (attL x attR, with IHF and XIS, PCR verified) was 3.2.

In the case of “CTGCTTTTTTATACTAAGTTGGCATTATAAAAAAGCATTGCTTATCAATTTGTTGCAACGAACAGGTCACTATCAGTCAAAATATAATCATTATTTGATTTC / GAAATCAAATAATGATTATATTTTGACTGATAGTGACCTGTTCGTTGCAACAAATTGATAAGCAATGCTTTTTTATAATGCCAACTTAGTATAAAAAAGCAG / CTGCTTTTTTATACTAACTTG / CAAGTTAGTATAAAAAAGCAG [attL.a ; attB]”, the activity (% fluorescent cells) (attL.a x attB, with IHF and XIS, PCR verified) is reported as 2.

“CTGCTTTTTTATACTAAGTTGGCATTATAAAAAAGCATTGCTTATCAATTTGTTGCAACGAACAGGTCACTATCAGTCAAAATATAATCATTATTTGATTTC / GAAATCAAATAATGATTATATTTTGACTGATAGTGACCTGTTCGTTGCAACAAATTGATAAGCAATGCTTTTTTATAATGCCAACTTAGTATAAAAAAGCAG / GCTGTTACAGGTCACTAATACCATCTACGTAGTTGATTCATATTGTCTGCATATCTTGTGTTTTACAGTATTATCTAGTCTGTTTTTTATCCAAAATCTAATTTATTATATTGATATTTATATCATTTTACGTTTCTCGTTCAGCTTTTTTATACTAACTTG / CAAGTTAGTATAAAAAAGCTGAACGAGAAACGTAAAATGATATAAATATCAATATAATAAATTAGATTTTGGATAAAAAACAGACTAGATAATACTGTAAAACACAAGATATGCAGACAATATGAATCAACTACGTAGATGGTATTAGTGACCTGTAACAGC [attL.a ; attR.b]” gave an activity (% fluorescent cells) (attL.a x attR.b, with IHF and XIS, PCR verified) of 1.2.

“CTGCTTTTTTATACTAAGTTGGCATTATAAAAAAGCATTGCTTATCAATTTGTTGCAACGAACAGGTCACTATCAGTCAAAATATAATCATTATTTGATTTC / GAAATCAAATAATGATTATATTTTGACTGATAGTGACCTGTTCGTTGCAACAAATTGATAAGCAATGCTTTTTTATAATGCCAACTTAGTATAAAAAAGCAG / GCTGTTACAGGTCACTAATACCATCTATGTAGTTGATTCATATTGTCTGCATATCTTGTGTTTTACAGTATTATCTAGTCTGTTTTTTATCCAAAATCTAATTTATTATATTGATATTTATATCATTTTACGTTTCTCGTTCAGCTTTTTTATACTAACTTG / CAAGTTAGTATAAAAAAGCTGAACGAGAAACGTAAAATGATATAAATATCAATATAATAAATTAGATTTTGGATAAAAAACAGACTAGATAATACTGTAAAACACAAGATATGCAGACAATATGAATCAACTACATAGATGGTATTAGTGACCTGTAACAGC [attL.a ; attR.a]” showed an activity (% fluorescent cells) (attL.a x attR.a, with IHF and XIS, PCR verified) of 2.3.

“GCTGTTACAGGTCACTAATACCATCTACGTAGTTGATTCATATTGTCTGCATATCTTGTGTTTTACAGTATTATCTAGTCTGTTTTTTATCCAAAATCTAATTTATTATATTGATATTTATATCATTTTACGTTTCTCGTTCAGCTTTTTTATACTAAGTTGGCATTATAAAAAAGCATTGCTTATCAATTTGTTGCAACGAACAGGTCACTATCAGTCAAAATATAATCATTATTTGATTTC / GAAATCAAATAATGATTATATTTTGACTGATAGTGACCTGTTCGTTGCAACAAATTGATAAGCAATGCTTTTTTATAATGCCAACTTAGTATAAAAAAGCTGAACGAGAAACGTAAAATGATATAAATATCAATATAATAAATTAGATTTTGGATAAAAAACAGACTAGATAATACTGTAAAACACAAGATATGCAGACAATATGAATCAACTACGTAGATGGTATTAGTGACCTGTAACAGC / CTGCTTTTTTATACTAACTTG / CAAGTTAGTATAAAAAAGCAG [attP.b ; attB]” was tested, and the activity (% fluorescent cells) (attP.b x attB, with IHF, 0.3% without IHF plasmid) was 1.2.

“GCTGTTACAGGTCACTAATACCATCTACGTAGTTGATTCATATTGTCTGCATATCTTGTGTTTTACAGTATTATCTAGTCTGTTTTTTATCCAAAATCTAATTTATTATATTGATATTTATATCATTTTACGTTTCTCGTTCAGCTTTTTTATACTAAGTTGGCATTATAAAAAAGCATTGCTTATCAATTTGTTGCAACGAACAGGTCACTATCAGTCAAAATATAATCATTATTTGATTTC / GAAATCAAATAATGATTATATTTTGACTGATAGTGACCTGTTCGTTGCAACAAATTGATAAGCAATGCTTTTTTATAATGCCAACTTAGTATAAAAAAGCTGAACGAGAAACGTAAAATGATATAAATATCAATATAATAAATTAGATTTTGGATAAAAAACAGACTAGATAATACTGTAAAACACAAGATATGCAGACAATATGAATCAACTACGTAGATGGTATTAGTGACCTGTAACAGC / GCTGTTACAGGTCACTAATACCATCTACGTAGTTGATTCATATTGTCTGCATATCTTGTGTTTTACAGTATTATCTAGTCTGTTTTTTATCCAAAATCTAATTTATTATATTGATATTTATATCATTTTACGTTTCTCGTTCAGCTTTTTTATACTAAGTTGGCATTATAAAAAAGCATTGCTTATCAATTTGTTGCAACGAACAGGTCACTATCAGTCAAAATATAATCATTATTTGATTTC / GAAATCAAATAATGATTATATTTTGACTGATAGTGACCTGTTCGTTGCAACAAATTGATAAGCAATGCTTTTTTATAATGCCAACTTAGTATAAAAAAGCTGAACGAGAAACGTAAAATGATATAAATATCAATATAATAAATTAGATTTTGGATAAAAAACAGACTAGATAATACTGTAAAACACAAGATATGCAGACAATATGAATCAACTACGTAGATGGTATTAGTGACCTGTAACAGC [attP.b ; attP.b]” gave an activity (% fluorescent cells) (attP.b x attP.b, with IHF, 0.4% without IHF plasmid, 2% in Example 2 cotransfection without IHF (p190)) of 1.5.
